Laboratory results as given in patent US5604198A, “Method to enhance permeability of the blood/brain blood/nerve barriers to therapeutic agents” (priority 1994, dated 1997).

What was measured:
[1] = rat; for Relative increase of PS vs ALB, blood nerve barrier / Relative increase of Vp vs ALB, blood nerve barrier / Residual endoneurial plasma volume (Vp) of the blood nerve barrier / PS values across the blood nerve and blood brain barrier: in vivo; for Permeability coefficient-surface area product (PS) of the blood nerve barrier: not told, iv
Experimental: (§1) Male Sprague-Dawley rats (24-weeks-old) (460-500 g) were obtained from Bio Lab (St. Paul) and were used to determine the PS and Vp measurements. All animals were kept for a minimum of 3 days under standard housing conditions and feeding schedules prior to the experiments.
Briefly, a bolus of PBS containing ^125 I labelled carrier molecule was injected rapidly into the catheterized brachial vein of pentobarbital anesthetized rats. Blood was sampled during the next 30, 60, or 240 minutes from the brachial artery, depending on the carrier molecule being evaluated. Prior to the sacrifice of the animal at time sequences of 60 or 120 seconds, the second isotope-labelled carrier molecule (^131 I) was administered intravenously to serve as the residual plasma volume indicator (Vp).
After the final blood sample was collected, the sciatic nerves were rapidly removed and desheathed. Similarly, the brain was removed followed by the meninges. The brain was dissected into the cortex, caudal putamen, hippocampus, thalamus, brain stem, and cerebellum. The tissue was then lyophilized, and the dry weight was determined with a microbalance. These weights were then converted to their respective wet weights with wet weight/dry weight ratios previously determined for desheathed rat sciatic nerve and for the different brain regions. Tissue and plasma samples were assayed for ^125 I and ^131 I radioactivity in a 2-channel gamma counter. Radioactivity was corrected for crossover of ^131 I activity into the ^125 I channel and background activity. The Vp and PS measurements were calculated as described previously in Poduslo et al., Proc. Natl. Acad. Sci. U.S.A., 89, 2218 (1992). […] Statistical evaluations were done using Student's two-tailed paired t-test. Significance was accepted at the p<0.05 level.

[2] = rat, in vivo
Experimental: as §1
Briefly, a bolus of PBS containing ^125 I labelled carrier molecule was injected rapidly into the catheterized brachial vein of pentobarbital anesthetized rats. Blood was sampled during the next 30, 60, or 240 minutes from the brachial artery, depending on the carrier molecule being evaluated. […]
After the final blood sample was collected, the sciatic nerves were rapidly removed and desheathed. […] The tissue was then lyophilized, and the dry weight was determined with a microbalance. These weights were then converted to their respective wet weights with wet weight/dry weight ratios previously determined for desheathed rat sciatic nerve and for the different brain regions. Tissue and plasma samples were assayed for ^125 I and ^131 I radioactivity in a 2-channel gamma counter. Radioactivity was corrected for crossover of ^131 I activity into the ^125 I channel and background activity. The Vp and PS measurements were calculated as described previously in Poduslo et al., Proc. Natl. Acad. Sci. U.S.A., 89, 2218 (1992). […]

Substance	Relative increase of PS vs ALB, blood nerve barrier [1]	Relative increase of Vp vs ALB, blood nerve barrier [1]	Residual endoneurial plasma volume (Vp) of the blood nerve barrier [1] [µL/g]	PS values across the blood nerve and blood brain barrier [1]	Permeability coefficient-surface area product (PS) of the blood nerve barrier [1] [ml/g/sec × 10^6]	PS values in the different brain regions [2]	Vp values in the different brain regions [2] [µL/g]
ubiquitin	228.9	0.9	1.84 ± 0.51	–	–	–	–
hemoglobin	65.3	1.0	1.91 ± 0.35	1-10 ×10^-6 ml/g/sec	6.60 ± 1.33	–	–
ceruloplasmin	82.4	1.0	1.98 ± 0.38	1-10 ×10^-6 ml/g/sec	–	–	–
cytochrome c	73.6	1.0	1.96 ± 0.32	1-10 ×10^-6 ml/g/sec	7.43 ± 3.68	–	–
substance P [SP]	–	–	14.87 ± 3.53	–	–	27.68-36.53 ×10^-6 ml/g/s	11.03 to 21.29
lysozyme	66.4	1.3	2.57 ± 0.52	1-10 ×10^-6 ml/g/sec	6.71 ± 1.65	–	–
calmodulin	211.3	0.9	1.66 ± 0.32	–	21.34 ± 3.40	–	–
